± gives the standard deviation of the averaged measurements.
Tested on: ATP
Assay: switch fluorescence ratio, 500 uM ATP over buffer (Cy3 cluster intensity, sum of 5 cycles each) (fold (ratio)); higher = stronger signal-on switching upon ATP binding; sequences stand for … in TCGTCGGCAGCGTCAGATGTGTATAAGAGACAGTTTTTTTTTTTTTTTTTTTTTTTTT…TC
Conditions: aptamer strand: ATP DNA aptamer (quencher-CACCTGGGGGAGTATTGCGGAGGAAGG + anchor), 100 nM annealed; ATP concentration: 500 uM
Procedure, shortened: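 Switching-strand clusters labelled with Cy3 on a modified Illumina MiSeq flow-cell were annealed to 100 nM quencher-labelled ATP aptamer, imaged in selection buffer, and re-imaged after 15 min with 500 uM ATP at 22 °C. This was done over five cycles with NaOH stripping and re-annealing in between. The fluorescence ratio is summed target-cycle over summed buffer-cycle Cy3 intensity per cluster, averaged per switch-domain sequence, excluding clusters outside 100-1000 RFU.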
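Note: ATP exposure 15 min at 22 °C before imaging.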

Row | Sequence | switch fluorescence ratio
1 | GTTGTACTTG | 0.988 ± 0.005
2 | GTTGTAGGTG | 1.057 ± 0.0014
3 | GTTGTAGTCT | 1.02 ± 0.023
4 | GTTGTAGTTG | 0.98387 ± 0.00037
5 | GTTGTATCGG | 0.991 ± 0.021
6 | GTTGTCAGTA | 0.9836 ± 0.005
7 | GTTGTCATGC | 1.02 ± 0.033
8 | GTTGTCGCTT | 0.9811 ± 0.0057
9 | GTTGTCGTAT | 0.974 ± 0.051
10 | GTTGTCTCCA | 0.985 ± 0.015
11 | GTTGTGCGTA | 0.994 ± 0.031
12 | GTTGTGGCGG | 0.97 ± 0.021
13 | GTTGTGGGCG | 0.977 ± 0.12
14 | GTTGTGGTTC | 0.96755 ± 0.00092
15 | GTTGTGTATT | 0.998 ± 0.022
16 | GTTGTTAGGA | 0.961 ± 0.02
17 | GTTGTTATGT | 1.01 ± 0.015
18 | GTTGTTATTG | 1.01 ± 0.021
19 | GTTGTTGAAG | 1.009 ± 0.0011
20 | GTTGTTGCTA | 0.99 ± 0.034
21 | GTTGTTTGAT | 0.997 ± 0.052
22 | GTTGTTTGTA | 0.971 ± 0.021
23 | GTTGTTTGTT | 0.978 ± 0.015

Row | Sequence | switch fluorescence ratio
24 | GTTGTTTTGA | 0.994 ± 0.022
25 | GTTTAAAACG | 0.9961 ± 0.0073
26 | GTTTAAAATG | 1 ± 0.024
27 | GTTTAAACGT | 1.02 ± 0.021
28 | GTTTAATATT | 0.99 ± 0.026
29 | GTTTAATGGG | 0.999 ± 0.037
30 | GTTTAATTTG | 1 ± 0.025
31 | GTTTACGTGG | 1.01 ± 0.015
32 | GTTTACTCTT | 0.996 ± 0.025
33 | GTTTAGAGCG | 1.026 ± 0.01
34 | GTTTAGGGTA | 1.01 ± 0.051
35 | GTTTATAGGT | 0.9815 ± 0.0077
36 | GTTTATATAT | 1.03 ± 0.035
37 | GTTTATCATT | 0.982 ± 0.011
38 | GTTTATCCGT | 0.996 ± 0.055
39 | GTTTATGTTA | 1.017 ± 0.0018
40 | GTTTCAAACG | 0.971 ± 0.025
41 | GTTTCAATGC | 1.31 ± 0.1
42 | GTTTCCAGGT | 1.16 ± 0.017
43 | GTTTCCATGG | 0.973 ± 0.033
44 | GTTTCGCCGT | 1.046 ± 0.0054
45 | GTTTCGGTTG | 0.972 ± 0.05
46 | GTTTCTGGTG | 1.13 ± 0.064

Row | Sequence | switch fluorescence ratio
47 | GTTTCTTGGG | 0.995 ± 0.056
48 | GTTTCTTTAC | 0.988 ± 0.058
49 | GTTTCTTTGT | 0.986 ± 0.049
50 | GTTTGCAAGT | 1.011 ± 0.0072
51 | GTTTGCCCAA | 0.987 ± 0.037
52 | GTTTGCCCTT | 1.06 ± 0.1
53 | GTTTGCCTCT | 0.995 ± 0.012
54 | GTTTGCGCTT | 1.01 ± 0.021
55 | GTTTGCGGCA | 1.01 ± 0.027
56 | GTTTGGGAAA | 0.988 ± 0.036
57 | GTTTGGGCCG | 1.07 ± 0.028
58 | GTTTGGGTTG | 0.989 ± 0.019
59 | GTTTGGTAGT | 0.979 ± 0.038
60 | GTTTGTTAAT | 1.007 ± 0.0044
61 | GTTTGTTTAA | 0.981 ± 0.017
62 | GTTTTAAACA | 1 ± 0.034
63 | GTTTTAAAGG | 0.984 ± 0.031
64 | GTTTTAACAT | 0.9895 ± 0.0073
65 | GTTTTAAGGG | 0.99 ± 0.016
66 | GTTTTACGCG | 1 ± 0.007
67 | GTTTTAGAGG | 1.01 ± 0.015
68 | GTTTTAGCCA | 0.97 ± 0.013
69 | GTTTTAGGCT | 0.973 ± 0.061

Row | Sequence | switch fluorescence ratio
70 | GTTTTAGTGT | 0.98716 ± 0.00058
71 | GTTTTAGTTT | 0.987 ± 0.037
72 | GTTTTATAGG | 0.965 ± 0.021
73 | GTTTTATGAG | 0.959 ± 0.014
74 | GTTTTATGGA | 0.983 ± 0.034
75 | GTTTTATTTT | 1 ± 0.047
76 | GTTTTCAAAG | 0.973 ± 0.037
77 | GTTTTCCCGT | 1.03 ± 0.027
78 | GTTTTCGCGA | 1.06 ± 0.04
79 | GTTTTCGGGA | 1.03 ± 0.013
80 | GTTTTCGGGT | 1.01 ± 0.052
81 | GTTTTCTCAT | 0.989 ± 0.029
82 | GTTTTCTGAG | 0.9658 ± 0.0089
83 | GTTTTGACAT | 0.993 ± 0.0013
84 | GTTTTGATGG | 1 ± 0.019
85 | GTTTTGATTG | 1 ± 0.04
86 | GTTTTGGAGT | 1.05 ± 0.047
87 | GTTTTGGGCT | 1.01 ± 0.032
88 | GTTTTGGTAC | 1.01 ± 0.038
89 | GTTTTGTCAA | 1.02 ± 0.0038
90 | GTTTTGTCAT | 1.01 ± 0.035
91 | GTTTTGTGTA | 1.01 ± 0.074
92 | GTTTTGTTAT | 1.01 ± 0.018

Row | Sequence | switch fluorescence ratio
93 | GTTTTTAGAA | 0.994 ± 0.031
94 | GTTTTTATAT | 1.03 ± 0.015
95 | GTTTTTATTT | 0.976 ± 0.031
96 | GTTTTTCGAT | 1.02 ± 0.001
97 | GTTTTTCTTA | 0.978 ± 0.037
98 | GTTTTTCTTT | 0.988 ± 0.024
99 | GTTTTTGCTA | 1.01 ± 0.028
100 | GTTTTTGGTA | 0.986 ± 0.021
101 | GTTTTTGTAA | 1.02 ± 0.052
102 | GTTTTTGTCA | 1.021 ± 0.008
103 | GTTTTTGTCG | 1.07 ± 0.056
104 | GTTTTTTAGG | 0.978 ± 0.0056
105 | GTTTTTTATT | 0.996 ± 0.033
106 | GTTTTTTCAT | 1.02 ± 0.023
107 | GTTTTTTGTG | 0.986 ± 0.013
108 | TAAAAAAGG | 0.997 ± 0.042
109 | TAAAAAAGTT | 1.12 ± 0.26
110 | TAAAAAATAG | 1.043 ± 0.0086
111 | TAAAAACCTT | 1.43 ± 0.35
112 | TAAAAAGA | 0.9496 ± 0.005
113 | TAAAAAGATG | 1.02 ± 0.044
114 | TAAAAAGGGA | 1.02 ± 0.02
115 | TAAAAAGGGG | 0.998 ± 0.012

Row | Sequence | switch fluorescence ratio
116 | TAAAAAGTAT | 1 ± 0.015
117 | TAAAAATATT | 0.961 ± 0.03
118 | TAAAAATCGT | 0.997 ± 0.021
119 | TAAAAATTAT | 1 ± 0.028
120 | TAAAAGATTT | 1.01 ± 0.037
121 | TAAAAGCTGA | 0.989 ± 0.042
122 | TAAAAGGACT | 1.03 ± 0.034
123 | TAAAAGGGGT | 1.01 ± 0.05
124 | TAAAATACA | 0.983 ± 0.019
125 | TAAAATAGTC | 1.02 ± 0.034
126 | TAAAATATGG | 1.06 ± 0.11
127 | TAAAATGGGG | 1 ± 0.022
128 | TAAAATTTAA | 1.01 ± 0.05
129 | TAAAATTTTT | 1.002 ± 0.01
130 | TAAACACGTG | 0.987 ± 0.053
131 | TAAACAGTGA | 1.01 ± 0.038
132 | TAAACCGTGG | 1.02 ± 0.024
133 | TAAACCTAGC | 1.46 ± 0.062
134 | TAAACGCGGG | 1.04 ± 0.093
135 | TAAACGCGTA | 0.998 ± 0.029
136 | TAAACGTATT | 1.14 ± 0.13
137 | TAAACTAAAA | 0.97499 ± 3.2e-05
138 | TAAACTCCA | 1.05 ± 0.042

Row | Sequence | switch fluorescence ratio
139 | TAAAGAGGGT | 1 ± 0.033
140 | TAAAGATTTC | 1.01 ± 0.069
141 | TAAAGATTTT | 1.01 ± 0.041
142 | TAAAGCAGGA | 0.993 ± 0.03
143 | TAAAGCATGG | 0.98 ± 0.019
144 | TAAAGCTAGG | 0.995 ± 0.065
145 | TAAAGGATAT | 1.01 ± 0.014
146 | TAAAGGCTAC | 1.17 ± 0.2
147 | TAAAGGGAGC | 1.12 ± 0.19
148 | TAAAGGGATC | 0.978 ± 0.017
149 | TAAAGGGGCG | 1.01 ± 0.031
150 | TAAAGGGGGC | 1.05 ± 0.017
151 | TAAAGGGGTG | 1.01 ± 0.038
152 | TAAAGGGTTA | 0.985 ± 0.014
153 | TAAAGGGTTT | 0.982 ± 0.021
154 | TAAAGGTCAT | 0.9959 ± 0.0018
155 | TAAAGGTTTT | 0.974 ± 0.04
156 | TAAAGTGATT | 0.988 ± 0.025
157 | TAAAGTGGCG | 1.05 ± 0.039

Source: the supplement of paper PMC10126150
